Data published in patent US20160083712A1.

Target: CSN5 WT, soluble MPN domain construct of Example 2 (Homo sapiens)
Assay: ITC

CSN5 WT, soluble MPN domain construct of Example 2 (Homo sapiens), sequence (O35864 1-257 limits assumed): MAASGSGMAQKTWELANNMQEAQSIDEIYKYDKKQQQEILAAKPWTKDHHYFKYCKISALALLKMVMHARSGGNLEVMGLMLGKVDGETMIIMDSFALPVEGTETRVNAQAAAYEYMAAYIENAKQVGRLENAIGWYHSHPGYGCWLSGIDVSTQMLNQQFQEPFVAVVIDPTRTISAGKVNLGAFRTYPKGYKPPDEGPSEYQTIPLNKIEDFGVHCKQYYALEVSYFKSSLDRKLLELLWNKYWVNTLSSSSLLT

- Kd: 1000 to 5000 nM
Substance: CSN6, soluble MPN domain construct of Example 2 (from UniProt Q7L5N1 31-211)
